Test results published in PMC12157500.

Legend:
[1] = biological target: 57CrGPDH705-FLAG, di-domain glycerol-3-phosphate dehydrogenase from Chlamydomonas reinhardtii with 30 additional N-terminal amino acids (Chlamydomonas reinhardtii); assay: SEC
[2] = biological target: 87CrGPDH705-FLAG, di-domain glycerol-3-phosphate dehydrogenase from Chlamydomonas reinhardtii with the chloroplast targeting sequence removed (Chlamydomonas reinhardtii); assay: SEC

Substance	stoichiometry N [1]	stoichiometry N [2]
57CrGPDH705-FLAG, di-domain glycerol-3-phosphate dehydrogenase from Chlamydomonas reinhardtii with 30 additional N-terminal amino acids (enzyme)	5	
87CrGPDH705-FLAG, di-domain glycerol-3-phosphate dehydrogenase from Chlamydomonas reinhardtii with the chloroplast targeting sequence removed (enzyme)		4
